Our source for the self-aminoacylation values is the supplement of paper PMC9233669.

In one data set the test system is biotinyl-Phe-oxazolone. Nature of the data set: self-aminoacylation, catalytic enhancement (BFO) (fold over background); higher = more active; k-Seq, kA / k0A0; sequences stand for … in GGGAAUGGAUCCACAUCUACGAAUUC…UUCACUGCAGACUUGACGAAGCUG
Put shortly:
(§1)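 Working in 50 μL HEPES/NaCl/KCl/MgCl2/CaCl2 buffer with 5% acetonitrile at pH 6.9–7.0, mutagenized RNA pools (0.43 μM; 21-nt variable region) were reacted with 2–1250 μM of each biotinyl-aminoacyl-oxazolone for 90 minutes at room temperature. Streptavidin capture followed, with quantification by triplicate qPCR and Illumina sequencing. Catalytic enhancement is reported as median kA over the uncatalyzed rate, the low-activity peak of a bimodal Gaussian fit to the data.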

A further data set concerns biotinyl-Ile-oxazolone. Nature of the data set: self-aminoacylation, catalytic enhancement (BIO) (fold over background); higher = more active; k-Seq, kA / k0A0; sequences stand for … in GGGAAUGGAUCCACAUCUACGAAUUC…UUCACUGCAGACUUGACGAAGCUG
Put shortly: as §1

The next data set has as its system biotinyl-Met-oxazolone. Nature of the data set: self-aminoacylation, catalytic enhancement (BMO) (fold over background); higher = more active; k-Seq, kA / k0A0; sequences stand for … in GGGAAUGGAUCCACAUCUACGAAUUC…UUCACUGCAGACUUGACGAAGCUG
Put shortly:
as §1

For another data set, the system named is biotinyl-Val-oxazolone. Kind of data set: self-aminoacylation, catalytic enhancement (BVO) (fold over background); higher = more active; k-Seq, kA / k0A0; sequences stand for … in GGGAAUGGAUCCACAUCUACGAAUUC…UUCACUGCAGACUUGACGAAGCUG
In short, it runs like this:
as §1

In the next data set the test system is biotinyl-Leu-oxazolone. Kind of data set: self-aminoacylation, catalytic enhancement (BLO) (fold over background); higher = more active; k-Seq, kA / k0A0; sequences stand for … in GGGAAUGGAUCCACAUCUACGAAUUC…UUCACUGCAGACUUGACGAAGCUG
In short, it runs like this: as §1

The subject of the next data set is biotinyl-Trp-oxazolone. Nature of the data set: self-aminoacylation, catalytic enhancement (BWO) (fold over background); higher = more active; k-Seq, kA / k0A0; sequences stand for … in GGGAAUGGAUCCACAUCUACGAAUUC…UUCACUGCAGACUUGACGAAGCUG
In short, it runs like this: as §1

Variants at the floor of the assay were thinned out.

On to “AUUACCCUGGUCAUUCAGUGA [Fam2.1 aminoacylation ribozyme variant]”, for which the self-aminoacylation came to 14.1 in the data set with biotinyl-Phe-oxazolone; 3.33 in the data set on biotinyl-Ile-oxazolone; 4.7 in the data set with biotinyl-Met-oxazolone; 3.16 in the data set with biotinyl-Val-oxazolone; 5.37 in the data set with biotinyl-Leu-oxazolone; 6.28 in the data set with biotinyl-Trp-oxazolone.

Turning to “AUUAACCUUGUCAUCGAGUGA [Fam2.1 aminoacylation ribozyme variant]”, the self-aminoacylation with biotinyl-Phe-oxazolone worked out at 17.6; in the data set on biotinyl-Ile-oxazolone, 3.25; with biotinyl-Met-oxazolone it was 6.16; in the data set on biotinyl-Val-oxazolone it was 3.39; in the data set on biotinyl-Leu-oxazolone it was 6.72; in the data set on biotinyl-Trp-oxazolone it was 7.59.

With “CUACAGCAAACAAUCGGUCUG [Fam1A.1 aminoacylation ribozyme variant]”, the self-aminoacylation in the data set with biotinyl-Phe-oxazolone came out at 0.421; with biotinyl-Ile-oxazolone, 0.48; in the data set with biotinyl-Met-oxazolone, 0.482; in the data set on biotinyl-Val-oxazolone, 0.65; in the data set on biotinyl-Leu-oxazolone it was 0.577; in the data set on biotinyl-Trp-oxazolone, 0.574.

As for “AUUCACGUAGGUCAUCGGGUA [Fam2.2 aminoacylation ribozyme variant]”, the self-aminoacylation with biotinyl-Phe-oxazolone was 21; in the data set on biotinyl-Ile-oxazolone, 2.9; with biotinyl-Met-oxazolone it was 3.16; in the data set with biotinyl-Val-oxazolone, 3.72; in the data set with biotinyl-Leu-oxazolone, 2.95; with biotinyl-Trp-oxazolone, 3.66.

“AUUCACCGAAGUCAUCGGGUG [Fam2.2 aminoacylation ribozyme variant]”: the self-aminoacylation in the data set with biotinyl-Phe-oxazolone came to 152; with biotinyl-Ile-oxazolone, 9.89; in the data set on biotinyl-Met-oxazolone, 17.6; in the data set on biotinyl-Val-oxazolone, 9.73; with biotinyl-Leu-oxazolone, 23.7; in the data set with biotinyl-Trp-oxazolone, 15.1.

Turning to “CCACAUUUCAAGCAAUCGGUG [Fam1B.1 aminoacylation ribozyme variant]”, the self-aminoacylation was 59.1 with biotinyl-Phe-oxazolone; 6.23 with biotinyl-Ile-oxazolone; 8.9 in the data set with biotinyl-Met-oxazolone; 5.89 with biotinyl-Val-oxazolone; 12.9 in the data set with biotinyl-Leu-oxazolone; 9.35 in the data set with biotinyl-Trp-oxazolone.

With “AAGUUUGCUAAUAGGGGCAAG [Fam3.1 aminoacylation ribozyme variant]”, the self-aminoacylation is 1.08 with biotinyl-Phe-oxazolone; 0.686 in the data set on biotinyl-Ile-oxazolone; 0.663 with biotinyl-Met-oxazolone; 0.649 in the data set with biotinyl-Val-oxazolone; 0.505 with biotinyl-Leu-oxazolone; 0.665 in the data set on biotinyl-Trp-oxazolone.

Take “CUACUUCGAACAUUCGGUCUG [Fam1A.1 aminoacylation ribozyme variant]”: the self-aminoacylation in the data set on biotinyl-Phe-oxazolone was 0.576; in the data set with biotinyl-Ile-oxazolone, 1.29; with biotinyl-Met-oxazolone, 1.05; with biotinyl-Val-oxazolone, 1.32; in the data set on biotinyl-Leu-oxazolone it was 1.18; in the data set with biotinyl-Trp-oxazolone it was 0.84.

As for “AUUACCCUGGACAUCGAUUGA [Fam2.1 aminoacylation ribozyme variant]”, the self-aminoacylation was found to be 0.447 in the data set with biotinyl-Phe-oxazolone; 0.804 in the data set with biotinyl-Ile-oxazolone; 0.785 with biotinyl-Met-oxazolone; 0.863 in the data set on biotinyl-Val-oxazolone; 0.831 in the data set with biotinyl-Leu-oxazolone; 0.675 with biotinyl-Trp-oxazolone.

As to “AUUACCCUGGGCAUCCAGUGA [Fam2.1 aminoacylation ribozyme variant]”, the self-aminoacylation in the data set on biotinyl-Phe-oxazolone came to 50.6; in the data set on biotinyl-Ile-oxazolone, 3.76; in the data set with biotinyl-Met-oxazolone, 8.06; in the data set with biotinyl-Val-oxazolone, 3.83; with biotinyl-Leu-oxazolone it was 8.87; in the data set on biotinyl-Trp-oxazolone it was 7.23.

On to “AAGUUUGCUUCUAGUCGCAAG [Fam3.1 aminoacylation ribozyme variant]”, for which the self-aminoacylation in the data set with biotinyl-Phe-oxazolone came to 1.54; in the data set on biotinyl-Ile-oxazolone it was 1.39; with biotinyl-Met-oxazolone, 0.998; with biotinyl-Val-oxazolone it was 1.23; in the data set on biotinyl-Leu-oxazolone it was 1.2; in the data set with biotinyl-Trp-oxazolone, 1.11.

Regarding “CUACUUCAAACAAUCGCUCUC [Fam1A.1 aminoacylation ribozyme variant]”, the self-aminoacylation in the data set with biotinyl-Phe-oxazolone turned out to be 2.18; in the data set on biotinyl-Ile-oxazolone, 0.621; with biotinyl-Met-oxazolone, 0.384; with biotinyl-Val-oxazolone, 1.02; in the data set on biotinyl-Leu-oxazolone, 0.515; in the data set on biotinyl-Trp-oxazolone, 1.2.

Turning to “AUUCCCCUGGUCAUCGAGUUA [Fam2.1 aminoacylation ribozyme variant]”, the self-aminoacylation came out at 1.25 in the data set on biotinyl-Phe-oxazolone; 1.33 in the data set with biotinyl-Ile-oxazolone; 1.09 in the data set on biotinyl-Met-oxazolone; 1.36 with biotinyl-Val-oxazolone; 1.19 in the data set with biotinyl-Leu-oxazolone; 1.08 in the data set on biotinyl-Trp-oxazolone.

Regarding “AUUACCCUGGUCAUACAGUGA [Fam2.1 aminoacylation ribozyme variant]”, the self-aminoacylation in the data set on biotinyl-Phe-oxazolone came to 14.8; with biotinyl-Ile-oxazolone it was 2.91; in the data set on biotinyl-Met-oxazolone it was 4.03; in the data set with biotinyl-Val-oxazolone, 3.03; in the data set with biotinyl-Leu-oxazolone, 4.57; in the data set with biotinyl-Trp-oxazolone it was 5.95.

In the case of “ACUAACCUGGUCAUCGAGUGA [Fam2.1 aminoacylation ribozyme variant]”, the self-aminoacylation was determined as 2.68 in the data set on biotinyl-Phe-oxazolone; 3.19 with biotinyl-Ile-oxazolone; 4.84 in the data set on biotinyl-Met-oxazolone; 2.91 in the data set on biotinyl-Val-oxazolone; 3.83 in the data set on biotinyl-Leu-oxazolone; 5.42 with biotinyl-Trp-oxazolone.

In the case of “AUCACCCUGGUCAUCGAGUGG [Fam2.1 aminoacylation ribozyme variant]”, the self-aminoacylation is 41.8 with biotinyl-Phe-oxazolone; 4.14 in the data set with biotinyl-Ile-oxazolone; 10.3 in the data set on biotinyl-Met-oxazolone; 5.02 in the data set on biotinyl-Val-oxazolone; 12.7 in the data set on biotinyl-Leu-oxazolone; 10.2 in the data set on biotinyl-Trp-oxazolone.

As for “CUACUUCAAAAUAUCGGUCUG [Fam1A.1 aminoacylation ribozyme variant]”, the self-aminoacylation in the data set with biotinyl-Phe-oxazolone is 1.01; with biotinyl-Ile-oxazolone, 1.01; in the data set with biotinyl-Met-oxazolone it was 0.936; in the data set with biotinyl-Val-oxazolone, 0.911; in the data set with biotinyl-Leu-oxazolone, 0.798; with biotinyl-Trp-oxazolone, 0.973.

For the sequence “AUGUUUGCUAAUAGUCGCACG [Fam3.1 aminoacylation ribozyme variant]”, the self-aminoacylation in the data set on biotinyl-Phe-oxazolone came to 1.24; in the data set with biotinyl-Ile-oxazolone, 1.15; in the data set with biotinyl-Met-oxazolone, 1.02; in the data set on biotinyl-Val-oxazolone, 0.981; in the data set on biotinyl-Leu-oxazolone, 1.13; with biotinyl-Trp-oxazolone it was 0.741.

Consider “CUACUCCAAACAAUCGGUCUU [Fam1A.1 aminoacylation ribozyme variant]”, for which the self-aminoacylation in the data set on biotinyl-Phe-oxazolone stood at 1.74; with biotinyl-Ile-oxazolone, 0.864; with biotinyl-Met-oxazolone, 0.803; in the data set on biotinyl-Val-oxazolone, 0.958; in the data set with biotinyl-Leu-oxazolone it was 0.868; in the data set with biotinyl-Trp-oxazolone it was 1.2.

For the sequence “CCCCACUUCAAGCAAUCGGCC [Fam1B.1 aminoacylation ribozyme variant]”, the self-aminoacylation in the data set on biotinyl-Phe-oxazolone came to 20.8; in the data set with biotinyl-Ile-oxazolone, 2.74; in the data set with biotinyl-Met-oxazolone it was 3.04; with biotinyl-Val-oxazolone, 3.8; in the data set with biotinyl-Leu-oxazolone, 2.75; in the data set on biotinyl-Trp-oxazolone, 11.3.

In the case of “AAGUUUGAUAACAGUCGCAAG [Fam3.1 aminoacylation ribozyme variant]”, the self-aminoacylation in the data set on biotinyl-Phe-oxazolone stood at 0.983; with biotinyl-Ile-oxazolone it was 0.929; in the data set on biotinyl-Met-oxazolone, 0.877; in the data set with biotinyl-Val-oxazolone it was 0.798; with biotinyl-Leu-oxazolone it was 0.548; with biotinyl-Trp-oxazolone, 0.569.

Regarding “AUUACCCAAGUCAUCGAGUGA [Fam2.1 aminoacylation ribozyme variant]”, the self-aminoacylation in the data set on biotinyl-Phe-oxazolone was found to be 42.4; in the data set on biotinyl-Ile-oxazolone, 4.5; in the data set with biotinyl-Met-oxazolone it was 8.57; in the data set on biotinyl-Val-oxazolone it was 4.46; in the data set with biotinyl-Leu-oxazolone, 9.5; with biotinyl-Trp-oxazolone, 9.59.

In the case of “AAGUUUGCUAAUAGUCGCUAC [Fam3.1 aminoacylation ribozyme variant]”, the self-aminoacylation with biotinyl-Phe-oxazolone worked out at 0.82; in the data set with biotinyl-Ile-oxazolone it was 0.54; in the data set on biotinyl-Met-oxazolone, 0.57; in the data set on biotinyl-Val-oxazolone it was 0.697; in the data set with biotinyl-Leu-oxazolone it was 0.476; in the data set with biotinyl-Trp-oxazolone, 0.666.
